Experimental data reported in the supplement of paper PMC10065799, “High-throughput profiling of sequence recognition by tyrosine kinases and SH2 domains using bacterial peptide display” (eLife, 2023).

Tests used:
[1] = biological target: Jak2 (UniProt O60674); test: phosphorylation enrichment, bacterial display (enrichment ratio); higher = better substrate or ligand; peptides without Tyr show the background
[2] = biological target: FGFR1 (UniProt P11362); test: as above
[3] = tested on: AncSZ; test: as above
[4] = biological target: Fyn (UniProt P06241); test: as above
[5] = biological target: Hck (UniProt P08631); test: as above
[6] = biological target: EPHB1 (UniProt P54762); test: as above
[7] = tested on: c-Abl (mouse); test: as above
[8] = biological target: FGFR3 (UniProt P22607); test: as above
[9] = biological target: Fes (UniProt P07332); test: as above
[10] = tested on: Fer (mouse); test: as above
[11] = biological target: EPHB2 (UniProt P29323); test: as above
[12] = biological target: MERTK (UniProt Q12866); test: as above
[13] = tested on: c-Src; test: as above
[14] = biological target: c-Src SH2; test: SH2 binding enrichment of the phosphorylated peptide, bacterial display (enrichment ratio); higher = better substrate or ligand; peptides without Tyr show the background
[15] = biological target: Grb2 SH2 (UniProt P62993); test: as above
[16] = biological target: SHP2-C SH2; test: as above
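For SH2 binding enrichment of the phosphorylated peptide, bacterial display in this document: peptide library displayed on the E. coli surface as eCPX fusions, selected cells deep-sequenced, score is each peptide's frequency after selection divided by its frequency in the input.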
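For phosphorylation enrichment, bacterial display in this document: 11-residue human phosphosite peptides and single-mutation variants displayed on the E. coli surface, counted by deep sequencing, each peptide's frequency after selection divided by its frequency in the unselected input library; frequency after pTyr selection over input frequency; kinase dosed for 20-30% of maximal phosphorylation in three min.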

Sequence of EPHB1 (P54762 whole entry, looked up): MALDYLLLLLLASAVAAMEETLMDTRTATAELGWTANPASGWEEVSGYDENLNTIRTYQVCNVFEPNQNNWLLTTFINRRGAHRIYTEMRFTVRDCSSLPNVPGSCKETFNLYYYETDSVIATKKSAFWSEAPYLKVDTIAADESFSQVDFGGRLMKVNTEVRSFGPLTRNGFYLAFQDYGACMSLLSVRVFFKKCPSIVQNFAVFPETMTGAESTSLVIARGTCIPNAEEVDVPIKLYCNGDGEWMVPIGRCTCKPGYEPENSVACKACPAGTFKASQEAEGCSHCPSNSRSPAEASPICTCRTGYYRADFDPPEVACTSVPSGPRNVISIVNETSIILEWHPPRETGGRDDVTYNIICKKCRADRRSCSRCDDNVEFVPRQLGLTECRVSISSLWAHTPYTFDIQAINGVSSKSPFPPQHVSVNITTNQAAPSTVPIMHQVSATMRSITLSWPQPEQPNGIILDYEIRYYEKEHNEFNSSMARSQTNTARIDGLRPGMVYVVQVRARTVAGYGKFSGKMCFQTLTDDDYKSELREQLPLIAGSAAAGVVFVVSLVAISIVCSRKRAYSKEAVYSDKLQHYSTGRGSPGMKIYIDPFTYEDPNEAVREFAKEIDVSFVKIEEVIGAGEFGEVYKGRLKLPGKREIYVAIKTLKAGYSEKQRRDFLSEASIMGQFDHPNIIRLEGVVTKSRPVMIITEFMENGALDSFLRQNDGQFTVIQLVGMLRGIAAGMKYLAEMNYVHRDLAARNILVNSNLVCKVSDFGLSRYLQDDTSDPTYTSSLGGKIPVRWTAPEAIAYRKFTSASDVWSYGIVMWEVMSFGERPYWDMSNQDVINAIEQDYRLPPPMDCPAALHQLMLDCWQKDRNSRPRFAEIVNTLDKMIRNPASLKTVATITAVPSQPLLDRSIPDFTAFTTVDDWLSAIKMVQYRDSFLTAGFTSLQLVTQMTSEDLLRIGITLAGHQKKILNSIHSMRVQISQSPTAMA
Sequence of FGFR3 (P22607 whole entry, looked up): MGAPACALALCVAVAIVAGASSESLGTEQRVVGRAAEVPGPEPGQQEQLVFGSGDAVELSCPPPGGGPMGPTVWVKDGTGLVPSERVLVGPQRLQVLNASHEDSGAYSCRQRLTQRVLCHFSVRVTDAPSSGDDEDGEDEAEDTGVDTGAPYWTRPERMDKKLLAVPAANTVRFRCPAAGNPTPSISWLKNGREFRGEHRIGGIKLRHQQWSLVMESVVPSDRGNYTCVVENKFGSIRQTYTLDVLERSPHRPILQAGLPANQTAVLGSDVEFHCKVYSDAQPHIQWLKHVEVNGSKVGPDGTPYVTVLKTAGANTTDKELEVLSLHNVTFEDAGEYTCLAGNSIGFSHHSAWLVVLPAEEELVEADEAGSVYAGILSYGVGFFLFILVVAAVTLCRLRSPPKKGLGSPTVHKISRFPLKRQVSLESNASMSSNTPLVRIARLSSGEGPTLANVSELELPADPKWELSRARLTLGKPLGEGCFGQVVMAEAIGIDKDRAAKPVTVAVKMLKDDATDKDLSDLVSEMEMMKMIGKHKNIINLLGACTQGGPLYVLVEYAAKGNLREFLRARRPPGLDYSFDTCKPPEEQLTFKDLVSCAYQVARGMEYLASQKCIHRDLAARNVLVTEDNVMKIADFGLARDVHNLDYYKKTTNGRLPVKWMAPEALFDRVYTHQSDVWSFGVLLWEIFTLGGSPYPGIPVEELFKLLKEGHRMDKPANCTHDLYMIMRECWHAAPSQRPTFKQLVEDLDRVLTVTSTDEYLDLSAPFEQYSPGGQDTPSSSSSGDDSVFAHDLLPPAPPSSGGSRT
Sequence of FGFR1 (P11362 whole entry, looked up): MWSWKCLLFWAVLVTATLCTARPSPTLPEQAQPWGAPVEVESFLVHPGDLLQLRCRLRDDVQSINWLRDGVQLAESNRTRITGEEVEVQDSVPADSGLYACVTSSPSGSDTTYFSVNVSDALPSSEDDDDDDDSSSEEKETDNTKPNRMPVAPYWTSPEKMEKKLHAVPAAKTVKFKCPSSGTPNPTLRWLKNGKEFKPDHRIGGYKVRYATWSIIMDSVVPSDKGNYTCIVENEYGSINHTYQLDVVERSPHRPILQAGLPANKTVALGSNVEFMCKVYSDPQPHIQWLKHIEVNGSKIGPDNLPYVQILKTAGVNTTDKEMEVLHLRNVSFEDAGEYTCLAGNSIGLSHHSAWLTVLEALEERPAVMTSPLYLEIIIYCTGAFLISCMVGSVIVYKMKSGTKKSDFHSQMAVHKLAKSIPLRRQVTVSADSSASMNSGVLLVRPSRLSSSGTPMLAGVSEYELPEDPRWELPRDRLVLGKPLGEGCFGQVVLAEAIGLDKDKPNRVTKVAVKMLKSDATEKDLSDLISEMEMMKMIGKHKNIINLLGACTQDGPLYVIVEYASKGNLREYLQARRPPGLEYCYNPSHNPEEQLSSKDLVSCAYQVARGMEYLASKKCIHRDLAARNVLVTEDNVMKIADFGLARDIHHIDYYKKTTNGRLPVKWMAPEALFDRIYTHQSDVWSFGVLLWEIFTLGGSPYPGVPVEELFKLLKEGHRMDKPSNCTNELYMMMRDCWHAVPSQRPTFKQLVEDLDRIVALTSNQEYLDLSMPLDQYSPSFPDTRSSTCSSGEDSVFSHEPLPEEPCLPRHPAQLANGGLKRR
Sequence of Fes (P07332 whole entry, looked up): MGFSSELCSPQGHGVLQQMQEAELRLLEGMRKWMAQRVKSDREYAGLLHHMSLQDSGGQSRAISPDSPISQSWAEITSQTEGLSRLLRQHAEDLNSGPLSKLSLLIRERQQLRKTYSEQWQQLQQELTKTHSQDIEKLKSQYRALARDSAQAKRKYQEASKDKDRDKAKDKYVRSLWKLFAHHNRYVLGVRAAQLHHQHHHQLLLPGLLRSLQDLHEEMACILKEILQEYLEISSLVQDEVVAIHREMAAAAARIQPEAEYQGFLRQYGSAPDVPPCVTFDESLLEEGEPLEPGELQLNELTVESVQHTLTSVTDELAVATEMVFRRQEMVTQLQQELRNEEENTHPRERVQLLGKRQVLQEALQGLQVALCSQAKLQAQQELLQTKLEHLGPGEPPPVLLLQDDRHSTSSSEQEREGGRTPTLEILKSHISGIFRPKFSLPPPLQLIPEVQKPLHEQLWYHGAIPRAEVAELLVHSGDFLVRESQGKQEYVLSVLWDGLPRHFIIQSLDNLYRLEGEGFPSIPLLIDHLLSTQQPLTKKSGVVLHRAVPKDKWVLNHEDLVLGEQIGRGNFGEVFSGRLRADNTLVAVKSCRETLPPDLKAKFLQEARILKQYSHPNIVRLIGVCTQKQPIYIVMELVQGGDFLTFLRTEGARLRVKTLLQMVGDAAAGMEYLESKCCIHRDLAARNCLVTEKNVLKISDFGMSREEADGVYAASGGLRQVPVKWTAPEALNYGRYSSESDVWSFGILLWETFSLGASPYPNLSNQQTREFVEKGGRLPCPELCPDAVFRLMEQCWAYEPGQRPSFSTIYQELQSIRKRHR
Sequence of Jak2 (O60674 whole entry, looked up): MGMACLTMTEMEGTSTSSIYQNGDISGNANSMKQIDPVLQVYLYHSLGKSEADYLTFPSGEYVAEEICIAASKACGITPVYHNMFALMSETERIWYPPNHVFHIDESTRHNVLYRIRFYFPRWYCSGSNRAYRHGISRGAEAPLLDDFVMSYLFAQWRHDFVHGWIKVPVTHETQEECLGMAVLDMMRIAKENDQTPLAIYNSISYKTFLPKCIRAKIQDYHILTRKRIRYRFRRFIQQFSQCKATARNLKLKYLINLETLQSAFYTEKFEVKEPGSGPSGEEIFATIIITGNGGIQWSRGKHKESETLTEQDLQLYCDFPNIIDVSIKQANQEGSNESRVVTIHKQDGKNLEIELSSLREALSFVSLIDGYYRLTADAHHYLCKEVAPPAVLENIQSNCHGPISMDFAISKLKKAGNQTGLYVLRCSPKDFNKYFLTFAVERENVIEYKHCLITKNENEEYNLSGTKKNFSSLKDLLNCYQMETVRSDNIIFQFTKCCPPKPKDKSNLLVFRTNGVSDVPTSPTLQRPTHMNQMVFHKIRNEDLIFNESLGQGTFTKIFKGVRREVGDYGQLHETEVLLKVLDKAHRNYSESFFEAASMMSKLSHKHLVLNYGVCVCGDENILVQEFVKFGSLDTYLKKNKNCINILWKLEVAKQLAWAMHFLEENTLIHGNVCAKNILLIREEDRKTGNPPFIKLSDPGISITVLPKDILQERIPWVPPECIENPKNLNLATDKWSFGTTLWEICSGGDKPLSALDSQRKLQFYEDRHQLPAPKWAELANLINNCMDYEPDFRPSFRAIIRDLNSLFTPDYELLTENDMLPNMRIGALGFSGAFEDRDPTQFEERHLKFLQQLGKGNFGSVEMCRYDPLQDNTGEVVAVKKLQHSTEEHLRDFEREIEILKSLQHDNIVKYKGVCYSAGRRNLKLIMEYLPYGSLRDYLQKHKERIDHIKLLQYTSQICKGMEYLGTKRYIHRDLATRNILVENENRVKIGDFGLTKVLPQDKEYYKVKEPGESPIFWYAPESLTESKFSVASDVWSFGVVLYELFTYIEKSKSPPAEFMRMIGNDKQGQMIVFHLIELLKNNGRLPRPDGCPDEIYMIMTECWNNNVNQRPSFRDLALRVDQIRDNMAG
Sequence of Hck (P08631 whole entry, looked up): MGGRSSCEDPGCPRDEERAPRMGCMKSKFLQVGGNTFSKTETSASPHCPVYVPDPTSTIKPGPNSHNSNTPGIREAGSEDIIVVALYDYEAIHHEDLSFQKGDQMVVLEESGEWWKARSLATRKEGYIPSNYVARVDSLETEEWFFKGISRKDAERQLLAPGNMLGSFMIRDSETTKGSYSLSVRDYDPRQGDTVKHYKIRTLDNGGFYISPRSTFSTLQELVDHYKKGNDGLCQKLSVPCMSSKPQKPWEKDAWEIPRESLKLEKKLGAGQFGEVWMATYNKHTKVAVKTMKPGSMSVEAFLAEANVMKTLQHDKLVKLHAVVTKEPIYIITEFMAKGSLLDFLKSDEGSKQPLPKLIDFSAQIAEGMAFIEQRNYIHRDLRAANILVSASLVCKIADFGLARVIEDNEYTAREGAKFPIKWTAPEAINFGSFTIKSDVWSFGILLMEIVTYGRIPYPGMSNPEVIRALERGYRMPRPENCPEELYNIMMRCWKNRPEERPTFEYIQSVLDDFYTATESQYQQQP

Row | Sequence | phosphorylation enrichment [1] | phosphorylation enrichment [2] | phosphorylation enrichment [3] | phosphorylation enrichment [4] | phosphorylation enrichment [5] | phosphorylation enrichment [6] | phosphorylation enrichment [7] | phosphorylation enrichment [8] | phosphorylation enrichment [9] | phosphorylation enrichment [10] | phosphorylation enrichment [11] | phosphorylation enrichment [12] | phosphorylation enrichment [13] | SH2 binding enrichment [14] | SH2 binding enrichment [15] | SH2 binding enrichment [16]
1 | RDSQLYAVDYE [MRPS34_Y34] | 2.07 | 1.08 | 2.1 | 1.33 | 1.41 | 0.904 | 0.966 | 1.38 | 2.77 | 0.871 | 1.05 | 2.12 | 1.63 | 0.545 | 0.69 | 0.631
2 | SVIKEYQIRQV [USH2A_Y3623_G3618S] | 0.567 | 0.377 | 0.648 | 0.352 | 0.443 | 0.505 | 0.409 | 0.509 | 0.68 | 0.415 | 0.346 | 0.328 | 0.381 | 0.472 | 0.88 | 0.653
3 | RALRHYYKLNI [ETV6_Y401] | 0.504 | 1.46 | 1.07 | 0.685 | 0.95 | 1.29 | 0.371 | 1.03 | 0.606 | 0.402 | 0.415 | 0.763 | 0.201 | 1.47 | 2.09 | 1.17
4 | GTPVMYTYDEY [COL10A1_Y623] | 1.04 | 0.743 | 1.26 | 1.76 | 1.01 | 0.708 | 0.68 | 0.893 | 1.09 | 0.575 | 0.978 | 0.804 | 2.42 | 2.67 | 0.954 | 0.843
5 | FASTGYVIAIQ [GRIN2B_Y762_G763V] | 0.941 | 0.484 | 1.32 | 0.474 | 0.418 | 0.618 | 0.784 | 0.724 | 0.983 | 0.543 | 0.587 | 0.393 | 0.4 | 0.742 | 0.94 | 1.07
6 | TRDTDYQMTKR [ADA_Y308_L304R] | 0.525 | 0.394 | 0.639 | 0.377 | 0.373 | 0.383 | 0.501 | 0.7 | 0.646 | 0.359 | 0.446 | 0.344 | 0.31 | 0.544 | 0.821 | 0.447
7 | GGGGGYNRSSG [FUS_Y232] | 0.503 | 0.304 | 0.478 | 0.371 | 0.419 | 0.57 | 0.574 | 0.386 | 0.503 | 0.328 | 0.271 | 0.435 | 0.358 | 0.34 | 0.682 | 0.503
8 | IRGNMYYENSY [EGFR_Y112] | 0.55 | 0.58 | 0.761 | 0.468 | 0.603 | 0.486 | 0.449 | 0.665 | 0.733 | 0.535 | 0.594 | 1.06 | 0.526 | 4.19 | 4.75 | 0.897
9 | HAVFIYDICHV [TWNK_Y508_V507I_YF] | 1.26 | 0.54 | 1.19 | 3.92 | 2.59 | 3.04 | 1.89 | 0.956 | 1.56 | 4.14 | 3.98 | 3.24 | 2.49 | 0.619 | 1.34 | 0.793
10 | AVPSLYASGRT [ACTA1_Y145_L142P] | 0.523 | 0.405 | 0.65 | 0.393 | 1.74 | 0.452 | 0.538 | 0.434 | 0.57 | 0.451 | 0.433 | 0.473 | 0.451 | 0.415 | 0.818 | 0.643
11 | LQLLGDRPVFS [CHST6_Y358_Y358D_YF] | 0.633 | 0.448 | 0.628 | 0.356 | 0.41 | 0.521 | 0.673 | 0.542 | 0.795 | 0.378 | 0.487 | 0.388 | 0.377 | 0.532 | 0.749 | 0.762
12 | GHEEFYSTHPH [LRRK2_Y1402_R1398H] | 0.59 | 0.76 | 0.664 | 0.638 | 1.15 | 0.617 | 0.504 | 0.549 | 0.626 | 1.41 | 0.7 | 1.77 | 1.2 | 0.434 | 0.771 | 1.09
13 | EKKQTYGSCRK [LACTB_Y473_R469K] | 0.484 | 0.395 | 0.533 | 0.37 | 0.391 | 0.415 | 0.581 | 0.488 | 0.685 | 0.351 | 0.356 | 0.366 | 0.43 | 0.867 | 1.23 | 0.838
14 | GLAELYEYQKK [CKAP5_Y1854_K1857Q] | 0.917 | 0.61 | 1.08 | 0.532 | 0.857 | 0.909 | 0.529 | 0.629 | 0.985 | 0.87 | 0.472 | 0.574 | 0.813 | 0.509 | 0.671 | 0.697
